The test concerns the target endogenous KCNH2-1A of rat cortical neurons (rat) (UniProt O08962). Kind of test: cell-based or functional assay.

In turn, “Isoform 3.1 of KCNH2 (human) (from UniProt Q12809 103-1159)” registered a deactivation time constant (tau) of E-4031-sensitive tail current, slow component, at -100 mV of command potential of 7.43 fold and a fold decrease in deactivation time constant (tau) of E-4031-sensitive tail current, fast component, at -100 mV of command potential of 5.88 fold.

The values are drawn from patent US20120190558A1.
